Bridge positions count the residues as written; N and C are the ends. Ends that are not written are not given here.

Assay [1] deals with T1, MASP-2 CCP1-CCP2-SP (human, UniProt O00187 298-686, limits assumed).
T1 construct: domain: CCP1-CCP2-SP; Recombinant fragment
As to the kind of experiment: enzyme inhibition, Z-L-Lys-SBzl substrate, tight-binding fit.

For another assay, the target named is Trypsin. Described as above.
Assay [2] addresses T2, MASP-1 CCP1-CCP2-SP (human, UniProt P48740 298-699, limits assumed).
T2 construct: domain: CCP1-CCP2-SP; Recombinant fragment
T2 sequence (looked up): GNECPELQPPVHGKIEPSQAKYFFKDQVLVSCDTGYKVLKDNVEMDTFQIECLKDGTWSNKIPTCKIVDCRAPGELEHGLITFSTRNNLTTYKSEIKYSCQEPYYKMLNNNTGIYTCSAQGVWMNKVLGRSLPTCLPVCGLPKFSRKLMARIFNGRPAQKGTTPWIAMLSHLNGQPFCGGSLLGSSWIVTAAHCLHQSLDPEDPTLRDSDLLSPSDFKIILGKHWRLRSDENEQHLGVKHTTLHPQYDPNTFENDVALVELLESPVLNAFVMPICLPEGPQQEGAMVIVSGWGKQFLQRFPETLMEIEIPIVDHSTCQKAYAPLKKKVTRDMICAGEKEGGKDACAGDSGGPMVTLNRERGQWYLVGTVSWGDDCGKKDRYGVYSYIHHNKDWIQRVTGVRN
The description is as above.

Assay [3] has as its target T1, MASP-2 CCP1-CCP2-SP. Briefly: preliminary experiments, method not described.
The target in assay [4] is T2, MASP-1 CCP1-CCP2-SP. As to the kind of experiment: preliminary experiments, method not described.
A further assay concerns the target Thrombin. Briefly: enzyme inhibition, Z-Gly-Pro-Arg-pNa substrate, tight-binding fit.

Trypsin, sequence (P00760 24-246): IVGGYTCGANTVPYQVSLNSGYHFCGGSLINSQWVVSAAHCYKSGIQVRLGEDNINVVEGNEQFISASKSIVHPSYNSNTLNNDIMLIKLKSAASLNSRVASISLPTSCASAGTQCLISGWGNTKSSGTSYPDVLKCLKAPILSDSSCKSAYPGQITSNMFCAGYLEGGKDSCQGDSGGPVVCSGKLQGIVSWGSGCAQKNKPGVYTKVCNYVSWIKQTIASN
T1 sequence (O00187 298-686 limits assumed): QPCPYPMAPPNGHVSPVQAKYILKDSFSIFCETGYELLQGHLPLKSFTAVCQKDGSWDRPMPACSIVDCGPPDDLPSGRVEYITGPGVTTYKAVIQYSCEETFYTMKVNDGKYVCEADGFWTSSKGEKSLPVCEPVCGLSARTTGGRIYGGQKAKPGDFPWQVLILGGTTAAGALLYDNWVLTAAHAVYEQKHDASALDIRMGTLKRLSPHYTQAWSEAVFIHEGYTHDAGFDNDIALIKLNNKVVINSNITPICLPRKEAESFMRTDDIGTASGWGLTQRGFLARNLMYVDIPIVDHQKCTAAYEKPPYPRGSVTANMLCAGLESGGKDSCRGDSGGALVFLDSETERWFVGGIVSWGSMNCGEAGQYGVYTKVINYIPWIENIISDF

In general, Ki refers to a dissociation constant, usually derived from enzyme kinetics or from competition with a known ligand. High values mean weaker binding, low ones tighter binding. Turning to cyclo(GICSRSLPPICIPD) (disulfide 3-11 (inferred), Backbone-cyclised form of M2-4G) [M2-4G cyclic], the Ki in the assay with MASP-2 CCP1-CCP2-SP [1] worked out at 750 nM; in the assay with Trypsin it was 350 nM; in the assay with MASP-1 CCP1-CCP2-SP [2], 275 nM.
Regarding GMCSRSYPPVCIPD (disulfide 3-11 (inferred), Point mutant of M2-6E) [M2-6E-Y2M], the inhibition constant Ki with MASP-2 CCP1-CCP2-SP [1] amounted to 1500 nM; in the assay with Trypsin, 4000 nM; with MASP-1 CCP1-CCP2-SP [2] it was 4000 nM.
On to GYCSRSIPPVCIPD (disulfide 3-11 (inferred), Point mutant of M2-6E) [M2-6E-Y7I], for which the results for the Ki with MASP-2 CCP1-CCP2-SP [1] and with Trypsin were 7000 nM and 160 nM, respectively.
On to GWCSRSYPPVCIPD (disulfide 3-11 (inferred), Point mutant of M2-6E) [M2-6E-Y2W], for which the Ki with MASP-2 CCP1-CCP2-SP [1] amounted to 580 nM; with Trypsin it was 1700 nM.

B1: M1-3E-Y12W (peptide)
peptide: GVCSRSLPPICWPD
modifications: disulfide 3-11 (inferred)
notes: The parent M1-3E was not tested as a synthetic peptide
Regarding B1, the values for the Ki in the assay with MASP-2 CCP1-CCP2-SP [1], with Trypsin and with MASP-1 CCP1-CCP2-SP [2] were 5000 nM, 170 nM and 140 nM, respectively.
In the case of EVTCEPGTTFKDKCNTCRCGSDGKSAACTLKACPQ (other, UniProt O46162 57-91, looked up) [Schistocerca Gregaria Chymotrypsin Inhibitor (SGCI)], the binding result with MASP-2 CCP1-CCP2-SP [3] and with MASP-1 CCP1-CCP2-SP [4] was “no binding” throughout.

B2: M2-4G (peptide)
peptide: GICSRSLPPICIPD
modifications: disulfide 3-11 (inferred)
notes: Synthetic consensus peptide of the non-selective group, linear form; also called "NS" peptide; non-selective peptide
Regarding B2, the Ki with MASP-2 CCP1-CCP2-SP [1] stood at 1030 nM; with Trypsin, 260 nM; in the assay with MASP-1 CCP1-CCP2-SP [2], 65 nM; with Thrombin, 10000 nM.

Values taken from patent publication US20120214748A1 (published 2012).
